This is an account of results in PMC11962113, “An unusual glycerol-3-phosphate dehydrogenase in Sulfolobus acidocaldarius elucidates the diversity of glycerol metabolism across Archaea” (Communications Biology, 2025).

One series concerns the target T1, Saci_1118 (G3PDH) (Sulfolobus acidocaldarius, UniProt Q4J9Q8).
T1 construct: full length, N-terminal His tag (pET15b), E. coli Rosetta (DE3); homodimer with 2 FAD; without CoxG
The experiment in a line: absorption spectrum of bound FAD, […] nm, after SDS denaturation. In kind it is binding. The note with it: two FAD per homodimer; non-covalent per family; reduced by G3P at 70 °C.

The target in another series is T2, Saci_2032 (G3PDH) (Sulfolobus acidocaldarius, UniProt Q4J7A2).
T2 construct: full length, N-terminal His tag (pET15b), E. coli Rosetta (DE3); homodimer with 2 FAD; without CoxG
The description is as above. It is filed as binding. The note with it: two FAD per homodimer; non-covalent per family; reduced by G3P at 70 °C.

Substrate in series [1]: OCC(O)CO
Briefly: purified protein. It is filed as biochemical, Sulfolobus acidocaldarius.

Substrate in series [2]: Nc1ncnc2c1ncn2[C@@H]1O[C@H](COP(=O)(O)OP(=O)(O)OP(=O)(O)O)[C@@H](O)[C@H]1O
Briefly: purified protein. It is filed as biochemical, Sulfolobus acidocaldarius. The note with it: 2 mM glycerol.

Series [3] concerns the molecule itself. The experiment in a line: SEC; Superose 6 Increase 10/300 GL, 50 mM TRIS-HCl pH 7.5, 250 mM NaCl; GKs 50 µg in 200 µL, G3PDHs 19 mg Saci_2032 or 6 mg Saci_1118 in 500 µL; calibrated with LMW and HMW gel filtration kits; native mass compared with subunit mass.
Substrate in series [4]: O=P(O)(O)OC[C@H](O)CO
Briefly: purified protein. In kind it is biochemical, Sulfolobus acidocaldarius. Particulars: 0.06 mM DCPIP as electron acceptor, 50 mM HEPES-KOH pH 6.5, 100 mM KCl, 70 °C.

Substrate in series [5]: COC1=C(OC)C(=O)C(CC=C(C)C)=C(C)C1=O
Briefly: purified protein. It is filed as biochemical, Sulfolobus acidocaldarius. The note with it: 0.4 mM G3P, no DCPIP, 50 mM HEPES-KOH pH 6.5, 100 mM KCl, 70 °C.

The mark [6] stands for this setting: 5 mM ATP, 5 mM MgCl2, 0.1 M MOPS-KOH pH 6.5, 50 °C.
[7] abbreviates: 1 mM ATP, 1 mM MgCl2, 0.1 M TRIS-HCl pH 7, 50 °C.

One may read the Km as the concentration of substrate that gives half-maximal velocity. By Vmax is commonly meant the rate approached at saturating substrate. For orientation: kcat/Km means the second-order rate constant that governs catalysis at low substrate concentration. Usually stoichiometry N stands for the number of molecules, sites or subunits per partner or assembly.

In the case of `Cc1cc2nc3c(=O)[nH]c(=O)nc-3n(C[C@H](O)[C@H](O)[C@H](O)COP(=O)(O)OP(=O)(O)OC[C@H]3O[C@@H](n4cnc5c(N)ncnc54)[C@H](O)[C@@H]3O)c2cc1C` [FAD], the “absorption spectrum of bound FAD, 450 nm, after SDS denaturation” value on Saci_1118 (G3PDH) and on Saci_2032 (G3PDH) was “a FAD content of two per homodimer was determined for both enzymes” throughout.

B1: glycerol kinase Saci_2033 (enzyme, S. acidocaldarius DSM 639, UniProt Q4J7A3 1-497, looked up)
chain: MAEKYVIAIDEGTTSARAIVFDKELNILGIGQNEFTQYYPQPGYVEHSPEEIWQAQLLAINKALEKAKIDRNNILSIGITNQRETTVMWDTRTGKPIYNAIVWQDRRTAPITDYLKANYLRLIKDRTGLVPDPYFSASKIKWILDNIPNAREKAEKGEIKFGTIDTYLIWKLTNGKAHVTDYSNASRTMLFNIRKLEWDREILEILNIPEAILPDVKPSSEIYGYAEILNSSIPISGDAGDQQAALFGQIAFNQGDVKCTYGTGSFILLNTGSNLVSSNDLLTTIAWGVGKGITYALEGSIFITGAAVQWFRDGLRAIDVSDEIEPLAGSVPDNGGVYFVPAFTGLGAPYWDPYARGLIIGITRGTTKAHIARAILESMAYQTMDVLGIMQRDSGIKIDALKVDGGASKNDLLMQFQADILKMKVVRPKIMETTSMGVAMLAGLSVGYWNSMDELKQKWKIDQVFEPKMDDEYREKLYSGWKEAVRRALGWAKTIGG
notes: Glycerol kinase Saci_2033 of Sulfolobus acidocaldarius DSM 639, 497 amino acids, calculated mass 55.3 kDa; ORF amplified from genomic DNA; also called GK; GlpK
In the case of B1, in the series “purified protein [1]” (setting [6]), the Km was found to be 0.024 ± 0.004 mM, the maximum rate (Vmax) was determined as 88.2 µmol/min/mg and the kcat/Km was determined as 1.31e+07 ± 2.2e+06 M⁻¹ s⁻¹. In “purified protein [2]” (0.1 M MOPS-KOH pH 6.5, 50 °C), the Michaelis constant (Km) is recorded as 0.174 ± 0.019 mM, the maximum rate (Vmax) stood at 91 µmol/min/mg and the kcat/Km worked out at 485000 ± 57100 M⁻¹ s⁻¹. The “stoichiometry N” value in series [3] amounted to 2.

B2: glycerol-3-phosphate dehydrogenase Saci_1118 (His-tagged, recombinant) (enzyme, S. acidocaldarius DSM 639, UniProt Q4J9Q8 1-428, looked up)
chain: MKQNSSVIVIGGGATGLFTALDLSLRGINVTLVERGDIASGTSGKFHGLLHSGARYAVNDPESAKECKQENEVLSKIAPEFVRDTGGVFVGITEDDVNYSQRFLSALNSLGITNKVMDVEELIRREPFINKKSKIAIWVPDKVVYGYDLLATVALTASLNGAKILTYNEVKRVLREGNSVRRVEVKDNISGETKILNGDIIVNTAGPWAFRVIEMAGLGEIPLLPTAGIMVVMKEKLNSMVINRLRPPSDGDIIVPYGDSSIIGTTATIIPDPDNFEISDEDINMLIEEGAYMIPRLKEVKPERAYASVRPLIKNAEDGRGATRDFMIIDHEKVDSLDGLISVIGGKFTTSRLAGEKVSDMVSEKLGIREKSKTATIKLMSELDEKLLEKKRVPKVLVKMIRERKGSLDEDRYSTAMYILLSLLARGE
notes: GlpA-like FAD-dependent glycerol-3-phosphate dehydrogenase Saci_1118 of Sulfolobus acidocaldarius DSM 639, calculated mass 46.9 kDa; ORF amplified from genomic DNA; also called G3PDH; GlpA-like; source: E. coli Rosetta (DE3), pET15b-saci_1118, purified (Nickel-IDA)
As for B2, in “purified protein [4]”, the Km is reported as 0.019 ± 0.003 mM, the maximal velocity (Vmax) was 19.6 µmol/min/mg and the kcat/Km was found to be 808000 ± 131000 M⁻¹ s⁻¹. In addition, in “purified protein [5]”, the Michaelis-Menten constant (Km) is recorded as 0.086 ± 0.019 mM, the Vmax came out at 18.7 µmol/min/mg and the kcat/Km worked out at 170000 ± 39700 M⁻¹ s⁻¹. Also, the “stoichiometry N” value in series [3] stood at 2.

B3: glycerol kinase Saci_1117 (enzyme, S. acidocaldarius DSM 639, UniProt Q4J9R1 1-498, looked up)
chain: MSKYILAVDEGTTSARALVFDEDLNVISIAQTELTQYFPRPGYVEQNPEEIFEKQVSMIKKAVEKAKIEISQVSAIGIANQRETTIMWDSRSGRPVYNAVVWQDRRTSDITDWLKSNYLNLFKSKTGLIPDPYFSASKIKWILDNVPGVREKAERGEIKFGTVDTYLIWKLTNGKVHVTDYSNASRTMLFNIKKLEWDRDILEILEIPEAILPEVRSSSEVYGYAEPVGNIPISGDAGDQQAALFGQLGFSKGDVKCTYGTGSFILMNSGEEIYDSKDLLTTIAWKIGKDVKYALEGSIFTTGAAVQWVRDGLGLVSSSDEIESLASSVVDNGGVYFVPAFSGLGSPYWDPYARGLIIGISRGTSRGHIARAVLESIAYQVRDVIEVIKKDVGKEFVNVLKVDGGVSKNNLLMQFQADILGIRIVRPRVIETTSMGASMLAGLAVDYWSSLEELKSKWAVDREFIPSLQEDRRERLYKGWKEAVRRTIGWAREVETME
notes: Glycerol kinase Saci_1117 of Sulfolobus acidocaldarius DSM 639, 498 amino acids, calculated mass 55.6 kDa; ORF amplified from genomic DNA; The results call the protein C-terminally His-tagged; also called GK; GlpK homologue; source: S. acidocaldarius MW001, homologous overexpression (pSVAmalFX-saci_1117-SH10), purified (Strep-Tactin XT 4Flow column)
In the case of B3, in “purified protein [1]” (setting [7]), the Km turned out to be 0.024 ± 0.001 mM, the Vmax was 45.7 µmol/min/mg and the specificity constant (kcat/Km) amounted to 6.4e+06 ± 507000 M⁻¹ s⁻¹. In the series “purified protein [2]” (0.1 M TRIS-HCl pH 7, 50 °C), the Km is 0.205 ± 0.024 mM, the Vmax was 50.8 µmol/min/mg and the kcat/Km turned out to be 229000 ± 28400 M⁻¹ s⁻¹. For the same molecule, the “stoichiometry N” value in series [3] amounted to 2.

B4: glycerol-3-phosphate dehydrogenase Saci_2032 (His-tagged, recombinant) (enzyme, S. acidocaldarius DSM 639, UniProt Q4J7A2 1-431, looked up)
chain: MEIKTSVLVIGGGANGLFTALDLALRGIDVTLVERRDIGSGTSGRFHGLLHSGARYAVTDPESAKECIQENNIISKIAPHAIRDTGGLFLGITKEDLEFLDKFLSSLKKLGIEHKIVDNNQVLQEEPYVNKDLKIAIWVPDKVVYGYDLLSSIAVTGSLNKARIMTYNEVTEFIRDGNSIKGVKVFDKITNQMNLIKSDIIINTSGPWAFKIITMAGLEEIPILPTAGIMAVFGKKVNNAVLNRLRPPSDGDIIVPYQDTSILGTTATIIEDPDNFTISDEDVKMLIKEGSQLVPELSKTRVIRTYASVRPLMRTSEDGRKASRDFTILDHEREDGVSGLISIIGGKFTTSRLVGEKVGDLVSEKLGVRAKSKTKETKLISPSEIDFEKYLEKIGISKIFLKSVMERRGSLDEERYKTVLYLLLSLIARGR
notes: GlpA-like FAD-dependent glycerol-3-phosphate dehydrogenase Saci_2032 of Sulfolobus acidocaldarius DSM 639, calculated mass 47.6 kDa; ORF amplified from genomic DNA; also called G3PDH; GlpA-like; source: E. coli Rosetta (DE3), pET15b-saci_2032, purified (Nickel-IDA)
B4: in the series “purified protein [4]”, the Km stood at 0.055 ± 0.009 mM, the Vmax was 44.5 µmol/min/mg and the kcat/Km was 642000 ± 111000 M⁻¹ s⁻¹. In “purified protein [5]”, the Km was 0.179 ± 0.075 mM, the Vmax came out at 21.1 µmol/min/mg and the kcat/Km was 128000 ± 58900 M⁻¹ s⁻¹. Moreover, the “stoichiometry N” value in series [3] worked out at 2.
